Laboratory results reported in patent US20120324606A1.
pIC50: −log10 of the molar value.

Legend:
[1] = molecular target: BBMV proteins (receptor binding sites) in brush border membrane vesicles from European corn borer (ECB; Ostrinia nubilalis) larval midgut; test: homologous competition: unlabeled Cry1Ab against 0.5 nM 125I Cry1Ab on ECB BBMVs
[2] = molecular target: BBMV proteins (receptor binding sites) in brush border membrane vesicles from fall armyworm (FAW; Spodoptera frugiperda) larval midgut; test: homologous competition: unlabeled Cry1Ab against 0.5 nM 125I Cry1Ab on FAW BBMVs
[3] = molecular target: BBMV proteins (receptor binding sites) in brush border membrane vesicles from fall armyworm (FAW; Spodoptera frugiperda) larval midgut; test: heterologous competition: unlabeled Cry1Ab against 0.5 nM 125I Cry1Be on FAW BBMVs
[4] = molecular target: BBMV proteins (receptor binding sites) in brush border membrane vesicles from fall armyworm (FAW; Spodoptera frugiperda) larval midgut; test: heterologous competition: unlabeled Cry1Ab against 0.5 nM 125I Cry1Be on FAW BBMVs; reference is homologous Cry1Be

Substance: Cry1Ab insecticidal protein (purified truncated Cry toxin) (from UniProt P0A370 29-612) (ligand)
- pIC50 [1]: 9.30
- pIC50 [2]: 9.52
- pIC50 [3]: 6.00
- fold lower affinity to compete for the binding of Cry1Be [4]: 500 fold
